Molecular target: T1, Duck egg lysozyme (DEL) (Anas platyrhynchos, DEL-II double mutant, strain)
T1 construct: duck egg lysozyme, DEL-II isoform, D65N + N103D double mutant; source: P. pastoris, secreted, purified (ion exchange)
T1 chain: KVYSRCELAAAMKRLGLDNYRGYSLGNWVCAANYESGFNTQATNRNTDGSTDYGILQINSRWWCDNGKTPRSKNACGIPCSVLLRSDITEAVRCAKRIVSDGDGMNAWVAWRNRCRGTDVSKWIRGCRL
Experiment: BLI; BLItz; biotinylated Fab loaded on streptavidin biosensors, lysozyme proteins in solution at a range of molar concentrations; PBS (sensors rehydrated in PBS with 0.1% BSA); global fit, 1:1 Fab-lysozyme interaction; affinities printed as 1/KD
Details: both partners purified

B1: Hy10 Fab (Fab, V domains shown)
VH: DVQLQESGPSLVKPSQTLSLTCSVTGDSITSDYWSWIRKFPGNRLEYMGYVSYSGSTYYNPSLKSRISITRDTSKNQYYLDLNSVTTEDTATYYCANWDGDYWGQGTLVTVSA
VL: DIVLTQSPATLSVTPGNSVSLSCRASQSIGNNLHWYQQKSHESPRLLIKYASQSISGIPSRFSGSGSGTDFTLSINSVETEDFGMYFCQQSNSWPYTFGGGTKLEIK
notes: Hy10 Fab heavy chain; Hy10 Fab light chain; Biotinylated only for BLI, not for the crystals; also called HyHEL10; WT founder antibody; source: Expi293, transient, purified (Talon, gel filtration)
B1 showed a Ka of 2.5e+07 M⁻¹.

From article PMC7486785 (Proceedings of the National Academy of Sciences of the …, 2020)
